Each block holds one molecule with its values, some of them ahead of it.
Legend:
[1] = target: T1, PA1618 (Pseudomonas aeruginosa, UniProt Q9I3A4); assay: steady-state competitive inhibition of benzoyl-CoA hydrolysis; assay type: biochemical
[2] = target: T1, PA1618; assay: X-ray crystal structure; assay type: biochemical
[3] = tested on: CC(C)(COP(=O)(O)OP(=O)(O)OC[C@H]1O[C@@H](n2cnc3c(N)ncnc32)[C@H](O)[C@@H]1OP(=O)(O)O)[C@@H](O)C(=O)NCCC(=O)NCCSC(=O)c1ccccc1; assay: steady-state kinetics; assay type: biochemical, Pseudomonas aeruginosa; settings: pH 7.5; 25.0 °C
[4] = target: T1, PA1618; assay: X-ray crystal structure; assay type: biochemical; remark: listed apart in the source
[5] = substrate: CC(C)(COP(=O)(O)OP(=O)(O)OC[C@H]1O[C@@H](n2cnc3c(N)ncnc32)[C@H](O)[C@@H]1OP(=O)(O)O)[C@@H](O)C(=O)NCCC(=O)NCCSC(=O)/C=C/c1ccc(O)cc1; assay: steady-state kinetics; assay type: biochemical, Pseudomonas aeruginosa; settings: pH 7.5; 25.0 °C
[6] = substrate: CC(C)(COP(=O)(O)OP(=O)(O)OC[C@H]1O[C@@H](n2cnc3c(N)ncnc32)[C@H](O)[C@@H]1OP(=O)(O)O)[C@@H](O)C(=O)NCCC(=O)NCCSC(=O)c1cc(O)c2ccccc2c1O; assay: steady-state kinetics; assay type: biochemical, Pseudomonas aeruginosa; settings: pH 7.5; 25.0 °C
[7] = substrate: CC(C)(COP(=O)(O)OP(=O)(O)OC[C@H]1O[C@@H](n2cnc3c(N)ncnc32)[C@H](O)[C@@H]1OP(=O)(O)O)[C@@H](O)C(=O)NCCC(=O)NCCSC(=O)c1ccccc1; assay: steady-state kinetics; assay type: biochemical, Pseudomonas aeruginosa; settings: pH 7.5; 25.0 °C; remark: listed apart in the source
[8] = substrate: CCCCCC(=O)SCCNC(=O)CCNC(=O)[C@H](O)C(C)(C)COP(=O)(O)OP(=O)(O)OC[C@H]1O[C@@H](n2cnc3c(N)ncnc32)[C@H](O)[C@@H]1OP(=O)(O)O; assay: steady-state kinetics; assay type: biochemical, Pseudomonas aeruginosa; settings: pH 7.5; 25.0 °C
[9] = substrate: CC(C)(COP(=O)(O)OP(=O)(O)OC[C@H]1O[C@@H](n2cnc3c(N)ncnc32)[C@H](O)[C@@H]1OP(=O)(O)O)[C@@H](O)C(=O)NCCC(=O)NCCSC(=O)c1ccc(O)cc1; assay: purified protein; assay type: biochemical, Pseudomonas aeruginosa; settings: pH 7.5; 25.0 °C

Ki ([1]; read-out: PA1618 Ki): 3.4 ± 0.3 µM
Molecule: CCCCCCCCCCC(=O)SCCNC(=O)CCNC(=O)[C@H](O)C(C)(C)COP(=O)(O)OP(=O)(O)OC[C@H]1O[C@@H](n2cnc3c(N)ncnc32)[C@H](O)[C@@H]1OP(=O)(O)O [Undecanyl-CoA]

Ki [1]: 12 ± 1 µM
Molecule: CC(C)(COP(=O)(O)OP(=O)(O)OC[C@H]1O[C@@H](n2cnc3c(N)ncnc32)[C@H](O)[C@@H]1OP(=O)(O)O)[C@@H](O)C(=O)NCCC(=O)NCCSCC(=O)c1ccc(O)cc1O [2,4-Dihydroxyphenacyl-CoA]

Ki [2]: 35 ± 5 µM
Molecule: CC(C)(COP(=O)(O)OP(=O)(O)OC[C@H]1O[C@@H](n2cnc3c(N)ncnc32)[C@H](O)[C@@H]1OP(=O)(O)O)[C@@H](O)C(=O)NCCC(=O)NCCSCC(=O)c1ccccc1 [Phenacyl-CoA]

Molecule: PA1618 (Pseudomonas aeruginosa PAO1; Q49A)
Km [3]: 5.0 ± 0.3 µM
kcat [3]: 0.022 ± 0.003 s⁻¹
kcat/Km [3]: 4400 M⁻¹ s⁻¹

Ki [4]: 19 ± 3 µM
Molecule: CC(C)(COP(=O)(O)OP(=O)(O)OC[C@H]1O[C@@H](n2cnc3c(N)ncnc32)[C@H](O)[C@@H]1O)[C@@H](O)C(=O)NCCC(=O)NCCOC(=O)c1ccccc1 [Benzoyl-OdCoA]

B1: PA1618 (Pseudomonas aeruginosa PAO1) (protein)
chain: MSLWRQTPDLEQLNASQKNSIGDLLGIRFEAFDDESLTASMPVDSRTHQPFGLLHGGASVVLAESLGSMASYLCVDTSQYYCVGLEVNANHLRGLRSGRVTAVARAIHLGRTTHVWDIRLSGDDGKPSCIARLTMAVVPLAGRAG
Km [5]: 2.7 ± 0.2 µM
kcat [5]: 2.5 ± 0.1 s⁻¹
kcat/Km [5]: 930000 M⁻¹ s⁻¹
Km [6]: 2.1 ± 0.1 µM
kcat [6]: 0.55 ± 0.01 s⁻¹
kcat/Km [6]: 280000 M⁻¹ s⁻¹
Km [7]: 12 ± 1 µM
kcat [7]: 56 ± 1 s⁻¹
kcat/Km [7]: 4.6e+06 M⁻¹ s⁻¹
Km [8]: 20 ± 2 µM
kcat [8]: 0.11 ± 0.01 s⁻¹
kcat/Km [8]: 5200 M⁻¹ s⁻¹
Km [9]: 3.6 ± 0.3 µM
kcat [9]: 9.3 ± 0.2 s⁻¹
kcat/Km [9]: 3.1e+06 M⁻¹ s⁻¹
